Values quoted from earlier work in article PMC3733499 (Thrombosis and haemostasis, 2013).

Columns and labels:
[1] = target: prothrombinase (FXa/FVa/PL) (Homo sapiens, UniProt P00742+P12259); conditions: only in the presence of FVa; ref [19]; cited from earlier work
FVa = target: T1, FVa (Homo sapiens, UniProt P07225); conditions: ref [19]; cited from earlier work
T1 sequence (P07225 42-676): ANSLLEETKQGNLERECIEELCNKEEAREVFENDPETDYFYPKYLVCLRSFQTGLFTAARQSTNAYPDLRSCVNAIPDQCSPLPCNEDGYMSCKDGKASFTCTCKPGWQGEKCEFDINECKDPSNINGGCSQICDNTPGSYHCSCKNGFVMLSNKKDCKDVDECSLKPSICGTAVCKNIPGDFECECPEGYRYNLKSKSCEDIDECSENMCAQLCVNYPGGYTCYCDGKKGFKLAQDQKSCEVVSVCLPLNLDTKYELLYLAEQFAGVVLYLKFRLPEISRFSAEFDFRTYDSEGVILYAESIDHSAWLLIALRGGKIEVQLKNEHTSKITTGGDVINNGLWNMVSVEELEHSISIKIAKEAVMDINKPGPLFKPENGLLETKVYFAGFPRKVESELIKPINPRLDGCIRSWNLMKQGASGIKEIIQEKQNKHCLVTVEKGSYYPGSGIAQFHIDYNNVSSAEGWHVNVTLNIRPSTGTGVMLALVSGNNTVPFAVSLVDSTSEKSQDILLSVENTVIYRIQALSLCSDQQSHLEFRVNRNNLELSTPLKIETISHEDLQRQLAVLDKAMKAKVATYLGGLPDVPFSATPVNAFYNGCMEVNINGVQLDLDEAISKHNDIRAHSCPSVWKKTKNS

FXa binding to FVa = conditions: ref [19]; cited from earlier work

Chain of prothrombinase (FXa/FVa/PL) (P12259 29-737 limits assumed): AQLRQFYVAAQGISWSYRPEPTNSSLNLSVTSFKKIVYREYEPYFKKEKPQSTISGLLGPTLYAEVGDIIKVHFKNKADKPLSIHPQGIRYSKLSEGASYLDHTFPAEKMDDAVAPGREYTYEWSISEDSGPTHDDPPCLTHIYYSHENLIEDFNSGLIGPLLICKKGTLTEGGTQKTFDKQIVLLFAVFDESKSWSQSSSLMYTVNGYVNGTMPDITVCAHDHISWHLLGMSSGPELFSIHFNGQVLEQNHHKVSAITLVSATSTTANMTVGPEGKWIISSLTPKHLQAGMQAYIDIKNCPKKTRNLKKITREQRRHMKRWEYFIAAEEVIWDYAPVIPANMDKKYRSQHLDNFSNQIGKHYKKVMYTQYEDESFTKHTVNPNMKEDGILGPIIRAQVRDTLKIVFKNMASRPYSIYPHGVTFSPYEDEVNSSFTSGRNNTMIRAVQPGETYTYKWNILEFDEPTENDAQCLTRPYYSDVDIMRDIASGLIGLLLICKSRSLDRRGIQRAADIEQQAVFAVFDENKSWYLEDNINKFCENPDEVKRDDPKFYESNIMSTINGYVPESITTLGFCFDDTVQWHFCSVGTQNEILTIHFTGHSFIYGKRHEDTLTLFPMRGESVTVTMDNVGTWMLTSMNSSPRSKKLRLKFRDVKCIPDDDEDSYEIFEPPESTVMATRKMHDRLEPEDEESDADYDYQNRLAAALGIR
Chain of prothrombinase (FXa/FVa/PL) (P12259 1574-2224 limits assumed): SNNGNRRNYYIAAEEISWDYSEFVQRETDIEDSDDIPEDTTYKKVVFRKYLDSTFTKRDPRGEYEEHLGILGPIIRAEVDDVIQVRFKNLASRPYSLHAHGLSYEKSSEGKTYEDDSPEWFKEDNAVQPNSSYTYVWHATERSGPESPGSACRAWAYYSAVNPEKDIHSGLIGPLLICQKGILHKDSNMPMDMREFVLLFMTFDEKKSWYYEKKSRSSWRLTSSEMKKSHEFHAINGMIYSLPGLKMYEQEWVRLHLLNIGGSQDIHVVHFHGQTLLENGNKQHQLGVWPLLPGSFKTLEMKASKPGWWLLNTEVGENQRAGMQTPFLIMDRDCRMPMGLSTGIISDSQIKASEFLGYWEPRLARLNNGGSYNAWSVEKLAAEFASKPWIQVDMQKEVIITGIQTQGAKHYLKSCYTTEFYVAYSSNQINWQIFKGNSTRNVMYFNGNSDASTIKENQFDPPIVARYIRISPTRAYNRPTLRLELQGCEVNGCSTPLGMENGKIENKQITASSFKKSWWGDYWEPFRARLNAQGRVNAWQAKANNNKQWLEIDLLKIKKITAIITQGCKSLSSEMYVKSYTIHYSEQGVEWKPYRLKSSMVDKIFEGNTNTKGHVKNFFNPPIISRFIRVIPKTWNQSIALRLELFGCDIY
Chain of prothrombinase (FXa/FVa/PL) (P00742 41-179 partner limits assumed): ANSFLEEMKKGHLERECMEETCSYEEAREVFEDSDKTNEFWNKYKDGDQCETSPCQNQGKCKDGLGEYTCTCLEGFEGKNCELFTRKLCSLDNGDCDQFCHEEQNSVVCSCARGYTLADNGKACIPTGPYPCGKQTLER
Chain of prothrombinase (FXa/FVa/PL) (P00742 235-488 partner limits assumed): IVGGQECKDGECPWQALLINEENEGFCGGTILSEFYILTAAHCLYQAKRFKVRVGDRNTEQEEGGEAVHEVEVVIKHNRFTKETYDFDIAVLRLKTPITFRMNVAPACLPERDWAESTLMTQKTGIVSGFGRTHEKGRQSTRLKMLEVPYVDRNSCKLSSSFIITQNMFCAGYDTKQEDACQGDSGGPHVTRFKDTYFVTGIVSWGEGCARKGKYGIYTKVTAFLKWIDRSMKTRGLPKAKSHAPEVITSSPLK

For “621–635 peptide: peptide representing PS residues 621–635 near the C-terminus (RAHSCPSVWKKTKNS; UniProt P07225 662-676, looked up, fragment)”, the “Inhibition of prothrombinase activity” value [1] is given as “inhibited prothrombinase activity only in the presence of FVa”, the “Inhibition of PS binding to FVa” value (FVa) is given as “inhibited PS binding to FVa” and the “Competition with FXa for a binding site on FVa” value (FXa binding to FVa) is given as “appeared to compete with FXa for a binding site on FVa”.
